{"source": "paper PMC11770335", "key": {"[1]": {"target": "E. coli Hfq V22A (E. coli) (UniProt P0A6X3)", "assay": "crystal structure; co-crystal of Hfq V22A with pA4 RNA; 22.5% PEGSB, 0.2 M LiSO4, 0.05 M zinc acetate, 0.1 M Bis-Tris pH 7.5; roughly 3.0 Å"}, "[2]": {"target": "E. coli Hfq V22A (E. coli) (UniProt P0A6X3)", "assay": "crystal structure; co-crystal of Hfq V22A with A17 RNA; 15% PEGSH, 0.15 M ammonium acetate, 0.1 M trisodium citrate pH 5; 2.1 Å"}}}
{"substance": "E. coli Hfq V22A (from UniProt P0A6X3 1-102) (natural protein)", "values": [{"measurement": "stoichiometry N", "setting": "[1]", "result": 6}, {"measurement": "stoichiometry N", "setting": "[2]", "result": 6}]}
